Assay results: patent US20220119540A1 (NANJING GENSCRIPT BIOTECH, published 2022)

Assays:
[1] = molecular target: OX40 on a functional cell line overexpressing OX40 (UniProt P43489); test: cell-based or functional assay
[2] = molecular target: T1, Recombinant human OX40-His protein (human, UniProt P43489 29-214, limits assumed); test: ELISA, plate coated with recombinant human OX-40 protein, antibody titrated
T1 construct: Recombinant antigen protein; also called recombinant human OX-40 protein; human OX-40 protein; not shown: His tag
T1 sequence (looked up): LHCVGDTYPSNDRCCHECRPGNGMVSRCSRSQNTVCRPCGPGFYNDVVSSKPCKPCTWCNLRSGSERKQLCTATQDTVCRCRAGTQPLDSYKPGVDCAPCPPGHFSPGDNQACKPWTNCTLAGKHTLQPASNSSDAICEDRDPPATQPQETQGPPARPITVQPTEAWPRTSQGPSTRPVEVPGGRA
Method: Recombinant human OX-40 protein and recombinant monkey OX-40 protein were respectively used to detect the cross-recognition ability of humanized monoclonal antibodies for human/monkey OX-40 protein.
The ELISA plate (Nunc) was coated with 100 μl/well of […] recombinant OX40-His protein in PBS at 4° C. overnight. The plate was washed with PBS-T (0.05% Tween) and blocked with 200 μl/well of PBST containing 1% BSA at 37° C. for 0.5 hr. Then the blocking buffer was discarded, 100 μl of 1000 ng/ml purified antibody was added to the first well, 3-fold serial dilutions were made, and a total of 11 test concentration gradients were given. Then the system was incubated for 1 hr at room temperature. The plate was washed three times with PBST and incubated with 100 μl/well of horseradish peroxidase-conjugated goat anti-human Fab fragment-IgG (Fab-specific) (GenScript) at 37° C. for 0.5 hr. The plate was washed 5 times with PBST, and then a TMB developing solution (GenScript) was added and incubated at room temperature for 15 min in the dark. The reaction was terminated by adding 50 μl of 1 M HCl stop solution (Sigma). The plate was read at 450 nm on a microplate reader.

[3] = molecular target: T2, OX40 on a functional cell line overexpressing OX40 (UniProt P43489 29-277, limits assumed); test: cell-based or functional assay
T2 sequence (looked up): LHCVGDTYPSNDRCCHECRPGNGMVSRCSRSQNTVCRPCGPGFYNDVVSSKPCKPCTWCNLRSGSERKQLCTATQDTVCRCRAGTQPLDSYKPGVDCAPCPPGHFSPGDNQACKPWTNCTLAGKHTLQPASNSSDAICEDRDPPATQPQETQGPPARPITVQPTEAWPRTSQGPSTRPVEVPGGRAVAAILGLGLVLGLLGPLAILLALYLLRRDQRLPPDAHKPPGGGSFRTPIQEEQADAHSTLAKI

[4] = molecular target: T3, Recombinant monkey OX-40 protein (monkey); test: ELISA, plate coated with recombinant monkey OX-40 protein, antibody titrated
T3 chain: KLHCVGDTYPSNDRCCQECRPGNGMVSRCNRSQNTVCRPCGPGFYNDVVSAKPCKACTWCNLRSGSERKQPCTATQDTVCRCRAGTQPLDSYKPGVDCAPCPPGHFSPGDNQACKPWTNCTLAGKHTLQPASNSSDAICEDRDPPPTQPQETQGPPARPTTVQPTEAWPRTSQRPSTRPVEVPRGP

[5] = molecular target: T1, Recombinant human OX40-His protein; test: SPR (Biacore 8K), OX40-HIS coupled to chip, antibody as analyte, 1:1 binding model
Method: The chip surface was equilibrated with HBS-EP buffer at a flow rate of 10 μl/min for 5 min, and then a 1:1 mixture of “NHS+EDC” was injected at a flow rate of 10 μl/min for 100 sec to activate the chip. The antigen protein (OX40-HIS) diluted in 10 mM sodium acetate buffer was injected for about 180 sec at a flow rate of 10 μl/min for coupling, and finally ethanolamine was injected for 200 sec at a flow rate of 10 μl/min to block the surface.
Three pre-cycles were performed with the HBS-EP buffer as a sample to balance the chip to stabilize the baseline. A low concentration of antibody was injected at a flow rate of 30 μl/min for 200 sec, to allow the antigen to bind to the antibody, and then the buffer was injected at a flow rate of 30 μl/min for 400 sec for dissociation. 10 mM Gly-HCl pH2.0 was injected three times each for 30 sec at a flow rate of 30 μl/min for regeneration, to complete one cycle.
The antibody concentration was changed to carry out the cycle for measurement at a next gradient concentration until all gradient concentrations (2.5 nM, 5 nM, 10 nM, 20 nM, 40 nM, and […]) and the replicate (such as 20 nM) were tested. The experimental data was double subtracted (minus the background values of the control channel and zero concentration), and fitted to the “1:1 binding” model in the Biacore 8K evaluation software. Biacore 8K was used to determine the affinity of the antibody to the OX40-HIS recombinant protein.

[6] = molecular target: T1, Recombinant human OX40-His protein; test: kinetic ranking (RU, 1:1 binding model), antibody product as ligand, OX40-His as analyte

OX40 ligand (from UniProt P23510 51-183)
IL-8 secretion by OX40 overexpressing functional cell line, EC50 [1]: 2.54 nM | IL-8 secretion by OX40 overexpressing functional cell line, best-fit value Bottom [1]: 4130 | IL-8 secretion by OX40 overexpressing functional cell line, best-fit value LogEC50 [1]: 0.404 | IL-8 secretion by OX40 overexpressing functional cell line, best-fit value Top [1]: 19900

B1: AH02923 humanized anti-human OX40 monoclonal antibody (recombinant human IgG1/kappa) (antibody, V domains shown)
VH: QVQLVQSGAEVKKPGASVKVSCKASGYTFTDYSMHWVRQAPGQGLEWMGWISTETGEPTYADDFKGRFTFTLDTSASTAYLELSSLRSEDTAVYYCARVRPWYLAVWGQGTLVTVSS
VL: DIQMTQSPSSLSASVGDRVTITCRASQDISNYLNWYQQKPGKAVKLLIYYTSRLYSGVPSRFSGSGSGTDYTFTISSLQPEDIATYYCQQANTLPLTFGGGTKLEIK
EC50 [2]: 0.0107 µg/mL | IL-8 secretion by OX40 overexpressing functional cell line, EC50 [3]: 1.55 nM | IL-8 secretion by OX40 overexpressing functional cell line, best-fit value Bottom [3]: 3350 | IL-8 secretion by OX40 overexpressing functional cell line, best-fit value LogEC50 [3]: 0.191 | IL-8 secretion by OX40 overexpressing functional cell line, best-fit value Top [3]: 21000 | EC50 [4]: 0.0303 µg/mL | Kd [5]: 2.15 nM | koff [5]: 0.000616 s⁻¹ | kon [5]: 287000 M⁻¹ s⁻¹

B2: Chimeric antibody, as ranked with the prokaryotically expressed antibody products (back-mutation screening) (Fab, V domains shown)
VH: QIQLVQSGPELKKPGETVKISCKASGYTFTDYSMHWVKQAPGKGLKWMGWISTETGEPTYADDFKGRFAFSLETSASTAYLQIKNLKNEDTASYFCARVRPWYLAVWGAGTTVTVSS
VL: DIQMTQTTSSLSASLGDRVTISCRASQDISNYLNWYQQKPDGTVKLLIYYTSRLYSGVPSRFSGSGSGADYSLTVSNLEQEDIATYFCQQANTLPLTFGAGTKLELK
Kd [6]: 11.2 nM | koff [6]: 0.00487 s⁻¹ | kon [6]: 434000 M⁻¹ s⁻¹
